From publication PMC5650148, “Ssn6-Tup1 global transcriptional co-repressor: Role of the N-terminal glutamine-rich region of Ssn6” (PLoS ONE, 2017)

B1: Ssn6 Sc3T (N175), the 175 amino-terminal residues of Ssn6 (domain or fragment, yeast, UniProt P14922 1-175, looked up)
chain: MNPGGEQTIMEQPAQQQQQQQQQQQQQQQQAAVPQQPLDPLTQSTAETWLSIASLAETLGDGDRAAMAYDATLQFNPSSAKALTSLAHLYRSRDMFQRAAELYERALLVNPELSDVWATLGHCYLMLDDLQRAYNAYQQALYHLSNPNVPKLWHGIGILYDRYGSLDYAEEAFAK
notes: Ssn6 (also known as Cyc8), yeast, the 175 amino-terminal residues: NTpolyQ tail and TPRs 1 to 3; One molecule stands for both two-hybrid forms of the same fragment: LexA-Sc3T as bait and Sc3T-Vp16 as prey; A chain carries either LexA or Vp16, never both; The LexA form was also used in the repression assay; also called LexA-Ssn6 Sc3T; LexA-Sc3T (N175); source: yeast two-hybrid fusion (LexA hybrid …)
B4: Tup1 N72, the Ssn6-interaction and Tup1 oligomerization domain (domain or fragment, yeast, UniProt P16649 1-72, looked up)
chain: MTASVSNTQNKLNELLDAIRQEFLQVSQEANTYRLQNQKDYDFKMNQQLAEMQQIRNTVYELELTHRKMKDA
notes: One molecule stands for both two-hybrid forms: LexA-Tup1 N72 as bait and Tup1 N72-Vp16 as prey; also called LexA-Tup1 N72; Tup1 N72-Vp16; source: yeast two-hybrid fusion (LexA hybrid from YCp91; Vp16 hybrid from YEp92)

Assays:
[1] = biological target: B4; experiment: cell-based or functional assay
[2] = biological target: B4; experiment: two-hybrid; LexA hybrids as DNA-binding baits, Vp16 or Gal4 activation domain hybrids as preys; wild-type yeast strain; lacZ reporter JK103 with four LexA operators upstream of the GAL1 TATA element; beta-galactosidase activity in Miller units, average of at least three transformants; settings: partners not purified
[3] = biological target: B1; experiment: as above; settings: partners not purified
[4] = biological target: the molecule itself; experiment: as above
[5] = biological target: the molecule itself; experiment: SEC; Biogel P100 gel filtration in 20 mM phosphate buffer pH 8.0, 300 mM NaCl, 1 mM DTT; calibrated with protein standards; self-association of the fragment

B1 was tested. Which “fold repression of the 4Lop-CYC1 lacZ reporter by LexA-Ssn6 Sc3T in the wild-type strain (endogenous Tup1)” value [1] did it give?
The value was 12 fold.

What about the beta-galactosidase activity [2] of the same binder?
The beta-galactosidase activity was 80 Miller units.

B2: Ssn6 Δ29 (amino acids 30 to 180) (domain or fragment, yeast, UniProt P14922 30-180, looked up)
chain: QAAVPQQPLDPLTQSTAETWLSIASLAETLGDGDRAAMAYDATLQFNPSSAKALTSLAHLYRSRDMFQRAAELYERALLVNPELSDVWATLGHCYLMLDDLQRAYNAYQQALYHLSNPNVPKLWHGIGILYDRYGSLDYAEEAFAKVLELD
notes: Ssn6 (also known as Cyc8), yeast, amino acids 30 to 180; lacks residues 1-29 of the NTpolyQ tail and contains three intact TPRs; also called Ssn6 Δ29-Gal4; LexA-Ssn6 Δ29; source: yeast two-hybrid fusion (clone isolated from a Gal4pAD yeast genomic library, pACTII)
B2 was tested. Which “fold repression of the 4Lop-CYC1 lacZ reporter by LexA-Ssn6 Δ29 in the wild-type strain (endogenous Tup1)” value [1] did it give?
Its value is 1 fold.

And the beta-galactosidase activity [3]?
Its beta-galactosidase activity is 93 Miller units.

B3: Ssn6 Δ45 (amino acids 46-181), Vp16 activation hybrid (domain or fragment, yeast, UniProt P14922 46-181, looked up)
chain: AETWLSIASLAETLGDGDRAAMAYDATLQFNPSSAKALTSLAHLYRSRDMFQRAAELYERALLVNPELSDVWATLGHCYLMLDDLQRAYNAYQQALYHLSNPNVPKLWHGIGILYDRYGSLDYAEEAFAKVLELDP
notes: Ssn6 (also known as Cyc8), yeast, amino acids 46-181; lacks the entire NTpolyQ tail (1-45); the four N-terminal TPRs; also called Ssn6 Δ45-Vp16; Ssn6 Δ45-Vp1; source: yeast two-hybrid fusion (YEp92)
Which results are given for B3?
fold repression of the 4Lop-CYC1 lacZ reporter by LexA-Ssn6 Δ45 in the wild-type strain (endogenous Tup1) [1]: 1 fold; beta-galactosidase activity [3]: 122 Miller units

What does the source list for B4?
beta-galactosidase activity [3]: 51 Miller units; beta-galactosidase activity [4]: 56 Miller units

B5: Ssn6 Δ45 (amino acids 46-181), purified recombinant fragment (domain or fragment, yeast, UniProt P14922 46-181, looked up)
chain: AETWLSIASLAETLGDGDRAAMAYDATLQFNPSSAKALTSLAHLYRSRDMFQRAAELYERALLVNPELSDVWATLGHCYLMLDDLQRAYNAYQQALYHLSNPNVPKLWHGIGILYDRYGSLDYAEEAFAKVLELDP
notes: Ssn6 (also known as Cyc8), yeast, amino acids 46-181; the four N-terminal TPRs, without the NTpolyQ tail; Cloned in pGEX-2T; GST was removed with thrombin on the column; also called GST-Δ45; source: E. coli BL21(DE3), purified (Glutathione Sepharose 4B, thrombin digestion, Biogel P100 gel filtration)
How did the “stoichiometry N” value [5] turn out when B5 was run?
The value was roughly 3.
